Measured values from doi:10.1101/695155.

Biological target: p35 (UniProt Q15078)
Assay: co-IP

UniProt Q15078, sequence (Q15078 whole entry): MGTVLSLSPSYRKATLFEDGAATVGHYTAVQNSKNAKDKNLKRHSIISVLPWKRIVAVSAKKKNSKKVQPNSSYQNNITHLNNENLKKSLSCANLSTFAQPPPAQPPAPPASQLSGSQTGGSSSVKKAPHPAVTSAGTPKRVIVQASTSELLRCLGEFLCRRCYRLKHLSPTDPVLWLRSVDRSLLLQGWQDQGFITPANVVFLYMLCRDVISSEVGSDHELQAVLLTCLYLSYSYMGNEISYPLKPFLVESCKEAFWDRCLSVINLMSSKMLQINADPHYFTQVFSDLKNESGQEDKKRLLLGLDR

- cdk5 recovered by anti-p35 IP with nestin co-expressed, normalised to no nestin: 1.12
Substance: HA-CDK5-DN (D145N) (from UniProt Q00535 1-292) (enzyme)
